Measured values as given in US4851521A, “Esters of hyaluronic acid” (priority 1985, dated 1989).

How the values were obtained:
[1] = Absorption and bioavailability: plasma levels of hydrocortisone in rats; format: in vivo, male Sprague-Dawley rats; conditions: s.c.; for average plasmatic level of hydrocortisone: average of 4 values; for Ka: HYC 6.5 mg/kg
Description: Male Sprague-Dawley rats, with a body weight of 250-350 gr were used, obtained from Charles River-Calco (Como), fed ad libitum with water and compound feed in pellets, with the code name of 4RF 21, produced by "Italiana Mangimi", licensee of Charles River.
Hydrocortisone was administered in the form of sodium hemisuccinate salt at the dose of 1.34 mg/kg (corresponding to 1 mg/kg of hydrocortisone base) by general intravenous route and at the dose of 1.34 mg/kg and 2.68 mg/ kg (corresponding to 2 mg/ kg of hydrocortisone base) by subcutaneouos route (the i.v. route was considered in order to determine the pharmacokinetic parameters which serve as a comparison for the evaluation of absorption of any other administration route).
The three HYC derivatives were administered by subcutaneous route at the dose of 6.5 and 13 mg/kg (doses corresponding to about 1 and 2 mg/kg in hydrocortisone base). […] All the compounds were injected at a constant volume of 1 ml/kg.
After administration, 0.3 ml of blood was drawn from each animal by cardiac puncture in the presence of anticoagulant (sodium heparin).
Blood drawing times were as follows: *15 mins, 30 mins, 60 mins, 120 mins, 180 min, 300 mins, 360 mins, 420 mins, 480 mins (*limited to the intraveneous route).
The hydrocortisone was dosed by radioimmunoassay method (Cortisolo Kit, Biodata, cod. 10394) using iodate tracing. […] The linearity of the method comes between 1 and 1000 ng/ml. The observation limit is 1 ng/ml.
The dosage of the cortisolemia in the rat is not influenced either by the base levels or by the circadian rhythms of this hormone, as the metabolic pattern of the endogenous glucocorticoid hormones in the rat, leads to the production of corticosterone and not cortisol (see E. L. Green: Biology of the laboratory mouse.)
In Table 3 are reported the results of the average plasma levels of hydrocortisone, after i.v. and s.c. injection (1 and 2 mg/kg). […] In Table 4 are reported the pharmacokinetic parameters of cortisol calculated graphically from the plasmatic decline curves. In Table 3 are reported the average levels of cortisol after subcutaneous administration of the three HYC derivatives at doses of 6.5 and 13 mg/kg (corresponding to about 1 and 2 mg/kg in hydrocortisone base). In Table 4 are reported the pharmacokinetic parameters relative to cortisol calculated graphically with the method of residues from the plasma absorption curve of the three HYC products.

[2] = system: dextran-induced aseptic (exudative) phlogosis in rabbit eye; assay: Anti-inflammatory activity: dextran-induced aseptic (exudative) phlogosis in rabbit eye; format: in vivo; conditions: for eyes without signs of phlogosis out of the total number of eyes treated: 3 drops every 6 hours, 4 treated eyes
Description: 9 hyaluronic esters of cortisone, hydrocortisone and fluorocortisone (9 fluorohydrocortisone) identified by the code names HYC1-HYC9 were tested. Table 1 describes these compounds and gives the percentages of the number of carboxylic groups of HY which are esterified with the above corticosteroids, and where applicable the percentage esterified with simple aliphatic alcohols and those salified with alkaline metals (Na):
Aseptic (exudative) phlogosis was induced in 48 rabbits by intraocular injection of dextran (1% in saline, 0.1 ml). The various products were administered by instillation in the right eye (RE) of the rabbits, while in the left eye (LE) only vehicle was instilled.
The treament (3 drops every 6 hours) was begun immediately after the injection of dextran and was continued for 16 days.
Both eyes of each rabbit were observed through a slit lamp. In particular the following were examined: the state of the conjunctiva and corneal epithelium, the anterior chamber (presence of Tyndall effect), state of the iris and of the posterior segment of the eye. With a Goldmann lens, the state of the back of the eye was examined. The presence of signs of inflammation (hyperemia, exudate, cloudiness of the liquids, etc.) was recorded.
Values are expressed as percentages (number of eyes without signs of phlogosis out of the total number of eyes treated). In brackets are the number of treated eyes.

horny layer (skin) = assay: Skin hydration after topical application (corneometer); format: in vivo, human (healthy volunteers); conditions: 0.2% in ointment, single administration, average for 10 subjects
Description: In order to establish a comparison between hyaluronic acid and its derivatives of the present invention, some experiments were carried out to instrumentally evaluate, after topical application, the hydrating properties of the compounds in examination. All the compounds were […] concentration of 0.2% in an ointment the composition of which was as follows: […] Each volunteer was treated (single administration) with all the formulations in examination, which were applied (1 gr./ointment) to the inside surface of each forearm, distinguishing with a dermographic pencil the application zone (about 25 cm^2) of each product and standardizing the procedure as far as possible. To the right forearm were applied the compounds known as […]9, while to the left were applied HYAFF10, placebo and hyaluronic acid. […] Most particularly, the dielectric strength of the water was measured (in 0.8 seconds), after application of the sensor (condenser) to the skin surface. […] Registrations were carried out in constant humidity conditions.

[3] = 10 days from start of phlogosis
[4] = 12 days from start of phlogosis
[5] = 14 days from start of phlogosis
[6] = 16 days from start of phlogosis

| Substance | average plasmatic level of hydrocortisone ([1]; 6.5 mg/kg, 30 min) | average plasmatic level of hydrocortisone ([1]; 6.5 mg/kg, 60 min) | average plasmatic level of hydrocortisone ([1]; 6.5 mg/kg, 120 min) | average plasmatic level of hydrocortisone ([1]; 6.5 mg/kg, 180 min) | average plasmatic level of hydrocortisone ([1]; 6.5 mg/kg, 360 min) | average plasmatic level of hydrocortisone ([1]; 6.5 mg/kg, 420 min) | average plasmatic level of hydrocortisone ([1]; 6.5 mg/kg, 480 min) | average plasmatic level of hydrocortisone ([1]; 13 mg/kg, 30 min) | average plasmatic level of hydrocortisone ([1]; 13 mg/kg, 60 min) | average plasmatic level of hydrocortisone ([1]; 13 mg/kg, 120 min) | average plasmatic level of hydrocortisone ([1]; 13 mg/kg, 180 min) | average plasmatic level of hydrocortisone ([1]; 13 mg/kg, 300 min) | average plasmatic level of hydrocortisone ([1]; 13 mg/kg, 360 min) | average plasmatic level of hydrocortisone ([1]; 13 mg/kg, 420 min) | average plasmatic level of hydrocortisone ([1]; 13 mg/kg, 480 min) | Ka [1] | eyes without signs of phlogosis out of the total number of eyes treated ([2]; 2 days from start of phlogosis) | eyes without signs of phlogosis out of the total number of eyes treated ([2]; 4 days from start of phlogosis) | eyes without signs of phlogosis out of the total number of eyes treated ([2]; 6 days from start of phlogosis) | eyes without signs of phlogosis out of the total number of eyes treated ([2]; 8 days from start of phlogosis) | also measured |
| --- | --- | --- | --- | --- | --- | --- | --- | --- | --- | --- | --- | --- | --- | --- | --- | --- | --- | --- | --- | --- | --- |
| (mixed) ethanol and hydrocortisone ester (C21) of hyaluronic acid (HY) [HYC5] | 33.41 ng/mL | 49.52 ng/mL | 60.52 ng/mL | 61.17 ng/mL | 42.44 ng/mL | 30.43 ng/mL | 25.85 ng/mL | 26.55 ng/mL | 38.77 ng/mL | 41.56 ng/mL | 44.81 ng/mL | 32.51 ng/mL | 31.92 ng/mL | 26.17 ng/mL | 22.54 ng/mL | 0.65 h⁻¹ | 0.0% | 0.0% | 25.0% | 50.0% | eyes without signs of phlogosis out of the total number of eyes treated [2, 3]: 50.0%; eyes without signs of phlogosis out of the total number of eyes treated [2, 4]: 100.0%; eyes without signs of phlogosis out of the total number of eyes treated [2, 5]: 100.0%; eyes without signs of phlogosis out of the total number of eyes treated [2, 6]: 100.0%; antiinflammatory activity (in words) ([2]; compared with the corresponding cortisones): most efficient of these derivatives |
| (partial and mixed) ethanol and hydrocortisone ester (LC21) of hyaluronic acid (HY) [HYC8] | 33.75 ng/mL | 45.23 ng/mL | 44.75 ng/mL | 41.80 ng/mL | 26.10 ng/mL | 20.50 ng/mL | 17.60 ng/mL | 34.62 ng/mL | 51.69 ng/mL | 108.01 ng/mL | 76.64 ng/mL | 54.66 ng/mL | 47.17 ng/mL | 42.60 ng/mL | 37.03 ng/mL | 0.94 h⁻¹ | 0.0% | 0.0% | 0.0% | 25.0% | average plasmatic level of hydrocortisone ([1]; 6.5 mg/kg, 300 min): 30.00 ng/mL; eyes without signs of phlogosis out of the total number of eyes treated [2, 3]: 50.0%; eyes without signs of phlogosis out of the total number of eyes treated [2, 4]: 100.0%; eyes without signs of phlogosis out of the total number of eyes treated [2, 5]: 100.0%; eyes without signs of phlogosis out of the total number of eyes treated [2, 6]: 100.0% |
| (partial) butyl ester of hyaluronic acid (HY) [HYAFF10] | – | – | – | – | – | – | – | – | – | – | – | – | – | – | – | – | – | – | – | – | x Δ% degree of hydration of the corneal layer, 1st hr (horny layer (skin)): 68.8%; x Δ% degree of hydration of the corneal layer, 3rd hr (horny layer (skin)): 57.0%; x Δ% degree of hydration of the corneal layer, 6th hr (horny layer (skin)): 27.5%; x Δ% degree of hydration of the corneal layer, 24th hr (horny layer (skin)): 8.3% |
| (partial) hydrocortisone ester (C21) of hyaluronic acid (HY) [HYC2] | 27.02 ng/mL | 35.67 ng/mL | 42.32 ng/mL | 37.35 ng/mL | 26.96 ng/mL | 24.24 ng/mL | 18.92 ng/mL | 32.32 ng/mL | 50.51 ng/mL | 62.42 ng/mL | 58.44 ng/mL | 51.68 ng/mL | 48.17 ng/mL | 44.67 ng/mL | 39.41 ng/mL | 0.86 h⁻¹ | 0.0% | 0.0% | 0.0% | 25.0% | average plasmatic level of hydrocortisone ([1]; 6.5 mg/kg, 300 min): 32.27 ng/mL; eyes without signs of phlogosis out of the total number of eyes treated [2, 3]: 50.0%; eyes without signs of phlogosis out of the total number of eyes treated [2, 4]: 100.0%; eyes without signs of phlogosis out of the total number of eyes treated [2, 5]: 100.0%; eyes without signs of phlogosis out of the total number of eyes treated [2, 6]: 100.0% |
| HYALURONIC ACID [reference compound] | – | – | – | – | – | – | – | – | – | – | – | – | – | – | – | – | – | – | – | – | x Δ% degree of hydration of the corneal layer, 1st hr (horny layer (skin)): 54.7%; x Δ% degree of hydration of the corneal layer, 3rd hr (horny layer (skin)): 37.6%; x Δ% degree of hydration of the corneal layer, 6th hr (horny layer (skin)): 19.7%; x Δ% degree of hydration of the corneal layer, 24th hr (horny layer (skin)): 5.3% |
| benzylester of hyaluronic acid (HY) [HYAFF11] | – | – | – | – | – | – | – | – | – | – | – | – | – | – | – | – | – | – | – | – | solubility in DMSO: 200 mg/mL |
